The text below walks through data of paper doi:10.1101/2025.07.28.667166.

What all share (test): NMR
One data set has as its target His33 (UniProt position 33, TDWCGHCQAAQ). As to conditions: 298 K, 1 mM protein.
The target in another data set is Cys31 (UniProt position 31, FGTDWCGHCQA). Conditions: 298 K; reduced (with DTT), 1 mM protein.
The next data set has as its target Cys34 (UniProt position 34, DWCGHCQAAQP). Conditions: 298 K; reduced (with DTT), 1 mM protein.

For the substance “Patrx2 (atypical thioredoxin, PA2694) (Pseudomonas aeruginosa)”, the pKa result is “less than 5” with His33 (oxidised (C31-C34 disulfide, without DTT)); 6.3 with His33 (reduced (with DTT)); 5.8 with Cys31; “greater than 11.0” with Cys34.

The pKa is the negative logarithm of the acid dissociation constant.
